Assay [1] concerns the target R163W hCCS (human) (UniProt O14618). The assay can be described thus: SEC; GE Superdex 200 10/300, TBS with 1 mM DTT, 0.5 ml/min, 500 μl loaded; high concentrations (series from 26 up to 918 μM before the column); monomer to dimer.
Assay [2] has the same target. The assay can be described thus: SEC-MALS; Agilent BioSEC-3 column, 20 mM Tris-HCl, 150 mM NaCl (TBS) with 1 mM DTT, 20 °C; monomer to dimer. Background: In gel filtration, larger molecules generally elute earlier.
In assay [3] the target is copper chaperone for SOD1 (hCCS), wild-type, zinc metalated (human) (UniProt O14618). Described as above.
For assay [4] the target is unchanged. The assay can be described thus: SEC; reducing conditions as above but with metal apo (zinc deficient) SOD1, mixed 1:1 with Zn-hCCS; Agilent BioSEC-3, TBS with 1 mM DTT, 20 °C.
The target is the same in assay [5]. The assay can be described thus: SEC; non-reducing time course with metal apo SOD1: SOD1 reduced and desalted into oxygen purged TBS, mixed with hCCS (copper apo/zinc holo or copper(I) loaded), incubated at 20 °C (8 minutes to 20 hours), then SEC.

What is called stoichiometry N is the number of molecules, sites or subunits per partner or assembly. Regarding “R163W hCCS (from UniProt O14618 1-274) (natural protein)”, the stoichiometry N with R163W hCCS (human) [1] and with R163W hCCS (human) [2] was 2 in each case.

On to “copper chaperone for SOD1 (hCCS), wild-type, zinc metalated (from UniProt O14618 1-274) (natural protein)”, for which the stoichiometry N in assay [3], in assay [4] and in assay [5] was 2 in each case.

The record behind these values is PMC4901319.
